The record followed here is patent US8507433B1, “Cardioprotective effects of GHRH agonists” (University of Miami, priority 2010, dated 2013).

Several values for one entry are separate records, joined by “and”; a condition that tells them apart may be missing. Identical values can stand only once. Marks after values point to notes of the source that are not given here.

One experiment concerns serum IGF-I. Nature of the experiment: Rat serum IGF-I (radioimmunoassay) after 4-week treatment. The experiment is classed as in vivo. As to conditions: rats post-MI, blood 1-2 hours after last injection, vs. placebo. On the procedure: (§1) MI induced by coronary artery ligation was performed in female 6-month-old Fisher-344 rats as described previously (40). Animals were randomly assigned to receive placebo, GHRH-agonist (GHRH-A [JI-38], 50 μg/kg) or rat recombinant GH (rrGH, 0.5 mg/kg) starting 2 hours post-surgery. All treatment was given subcutaneously twice daily for 4 weeks. The Institutional Animal Care and Use committee of University of Miami approved all protocols and experimental procedures.
(§2) At the end of the study, blood was drawn 1-2 hours after the last rrGH or GHRH-A injection and the serum was stored at −80° C. until the measurements were done. All the samples were assayed together and each sample was assayed in duplicate. Rat serum GH was measured using a rat GH Enzyme-Linked Immunosorbent Assay (ELISA) Kit (DSL-10-72100, DSL Webster, Tex.), following the manufacturer's recommendations. This test is an enzymatically amplified “one-step” sandwich-type enzyme immunoassay, where standards, controls and unknown samples are incubated in microtitration wells precoated with the anti-rat GH antibody. The standard curve of the assay was established with samples provided by the manufacturer. Rat serum IGF-I was measured using a rat IGF-I Radioimmunoassay Kit (DSL-2900, DSL Webster, Tex.), after extraction with acid ethanol, following the manufacturer's recommendations. […]

For another experiment, the system named is serum GH. Nature of the experiment: Rat serum GH (ELISA) after 4-week treatment. In kind it is in vivo. The settings on record: rats post-MI, blood 1-2 hours after last injection, vs. placebo. On the procedure:
as §1, §2
(ELISA stands for enzyme-linked immunosorbent assay.)

The test system of experiment [1] is female 6-month-old Fisher-344 rats, MI induced by coronary artery ligation. Nature of the experiment: Histopathology: MI size, fibrosis, capillary density, myocyte width. In kind it is in vivo, rat. The settings on record: rats post-MI after 4-week treatment. As for the experimental part:
as §1
(§3) At the end of the study, rat hearts were harvested for further analysis. Hearts were weighted and the basal portion, free of fibrotic tissue, was flash-frozen in liquid nitrogen for total RNA isolation and protein analysis. Remaining tissue was fixed with 10% formalin for histology.
Slides were prepared with H&E and Masson's trichrome stain to assess cardiac structure and the presence and extent of fibrosis and myocardial scar, respectively. The size of MI was determined using NIH Image version 1.30v for Windows to quantify the percentage area of fibrosis. An image-processing software (Imaging Processing Toolkit 5.0, Reindeer Graphics, Asheville, N.C.) and Adobe Photoshop CS2 (San Jose, Calif.) were used to assess the slides as previously described with minor modifications (3). The percentage of fibrosis was calculated by using the following formula: % fibrosis=fibrotic area/(fibrotic area+healthy area)
H&E stained sections of hearts from midventricular level were used to measure the myocyte width. At least 35-50 cardiomyocytes were counted and averaged at the level of the nuclei in non-infarcted remote myocardium.

The test system is the same in experiment [2]. Nature of the experiment: Echocardiographic measurements post-MI. The experiment is classed as in vivo, rat. The settings on record: echocardiography. As for the experimental part:
as §1
Echocardiographic measurements were obtained at baseline, 2 days, 1, 2 and 4 weeks. Echocardiographic assessments were performed in anesthetized rats (2% isoflurane inhalation) using a Vevo-770 echocardiogram (Visual Sonics Inc., Toronto, Ontario, Canada) equipped with a 17.5-MHz transducer. Cardiac dimensions: LV end diastolic (LVEDD), end systolic (LVESD) diameters and fractional shortening (FS) were recorded from M-mode images using averaged measurements from 3 to 5 consecutive cardiac cycles according to the American Society of Echocardiography (1). Ejection fraction (EF) was calculated from bi-dimensional long-axis parasternal views taken through the infarcted area. All images were analyzed using Vevo 770 3.0.0 software (Visual Sonics Inc., Toronto, Ontario, Canada).

The subject of experiment [3] is Bcl2 and Bax gene expression. Nature of the experiment: Real-time PCR of pro-apoptotic and anti-apoptotic genes (Bax, Bcl2) in rat heart. The experiment is classed as in vivo. The settings on record: rt-qPCR. On the procedure:
(§4) Total RNA from heart tissue was extracted using Trizol (Invitrogen, Carlsbad, Calif.). The quality of RNA isolated was tested using NanoDrop1000 (Thermo Fisher Scientific Inc., Wilmington, Del.). OD 260/280 ratio was in the range of 1.8 to 2.1 for all samples.
The monitoring of pro-apoptotic and anti-apoptotic genes was also assessed by real time PCR. First-strand cDNA was synthesized from 1 μg total RNA using the High-Capacity cDNA Reverse-Transcription Kit (Applied Biosystems, Inc., Foster City, Calif., USA), and ribosomal 18S RNA served as the housekeeping gene. We used TaqMan probes labeled with 6-carboxyfluorescein (FAM) for real-time RT-PCR reactions, according to manufacturer's protocol (Applied Biosystems, Inc., Foster City, Calif., USA). Data were analyzed by the threshold cycle (Ct) relative quantification method.
A general note: In qPCR the cycle at which signal appears reflects the starting amount.

Experiment [4] deals with female 6-month-old Fisher-344 rats, MI induced by coronary artery ligation. Nature of the experiment: Body weight and heart weight after MI, 4-week treatment. In kind it is in vivo, rat. As to conditions: mean±SEM; for Heart weight (HW) / body weight (BW) after MI: rats post-MI; for Heart weight (HW): after 4-week treatment; for body weight (BW) after MI: week 4, s.c. twice daily 4 weeks, GHRH-A 50 μg/kg or rrGH 0.5 mg/kg; for body weight (BW), baseline: rats, baseline before MI and treatment. As for the experimental part: as §1, §3

For experiment [5] the test system is unchanged. Nature of the experiment: Hemodynamic measurements (LV pressure-volume catheterization) post-MI. The experiment is classed as in vivo, rat. Set-up: SW (stroke work) / Ees (end-systolic elastance): unit not given here. As to conditions: rats post-MI after 4-week treatment; for Heart rate: LV catheterization; for LVEDP / LVEDV: preload. As for the experimental part:
as §1
Rats were anesthetized by intramuscular injection of a mixture of ketamine (100 mg/kg), xylazine (20 mg/kg) and acepromazine (10 mg/kg). A 2-F micromanometer tipped catheter (SPR-838, Millar Instruments, Houston, Tex.) was inserted into the right carotid artery and advanced retrograde into the left ventricle. Measurements were calibrated by injecting a hypertonic saline (15%) bolus to determine extra-ventricular conductance; relative volume units were converted to actual volume using the cuvette calibration method (2). All analyses were performed using PVAN 3.0 software (Millar Instruments, Houston, Tex.).

The test system of a further experiment is GHRH-R mRNA. Nature of the experiment: Real-time PCR of mRNA for GHRH-R and β-actin in rat heart tissue. The experiment is classed as in vivo. As to conditions: normalised to β-actin, Pfaffl method. On the procedure: as §4
The expression of GHRHR was measured using real-time quantitative PCR as described previously by Havt et al (6).
We evaluated the mRNA expression of rat GHRH receptor (GHRH-R) and β-actin. The probes designed to evaluate the expression of GHRH-R and β-actin are 5′-/Cy5/ACCTCCGACTTTCTCAGTTCCTGTATGCCC/BHQ—2/-3′ and 5′-/6-FAM/ATCCTGCGTCTGGACCTGGCTGGC/BHQ—1/-3′, respectively. Gene specific primer sequences were the following: GHRH-R (sense) 5′-[…]-3′ and 5′-TGGTTTCCCTGGGCCTTGG-3′ (antisense) with a product size of 110 bp, β-actin: (sense) 5′-GGGTTACGCGCTCCCTCAT-3′ and 5′-[…]-3′ (antisense) with a product size of 133 bp.
All real-time PCR reactions were performed in the iCycler iQ™ Real-Time PCR Detection System (Bio-Rad, Hercules, Calif.). Thermal cycling conditions comprised an initial denaturation step at 95° C. for 3 min followed by 45 cycles at 95° C. for 30 sec and an annealing temperature at 60° C. for GHRH-R and β-actin for 1 min. As final steps, we included two cycles: one at 95° C. and the other at 60° C., both for 1 min. […]

Experiment [6] addresses rat GHRH receptor (GHRHR) in membrane fractions from ischemic rat heart (rat) (UniProt Q02644). Nature of the experiment: radioligand binding: in vitro ligand competition assay with radioiodinated JV-1-42 on ischemic rat heart membrane fractions.
UniProt Q02644, sequence (Q02644 23-464): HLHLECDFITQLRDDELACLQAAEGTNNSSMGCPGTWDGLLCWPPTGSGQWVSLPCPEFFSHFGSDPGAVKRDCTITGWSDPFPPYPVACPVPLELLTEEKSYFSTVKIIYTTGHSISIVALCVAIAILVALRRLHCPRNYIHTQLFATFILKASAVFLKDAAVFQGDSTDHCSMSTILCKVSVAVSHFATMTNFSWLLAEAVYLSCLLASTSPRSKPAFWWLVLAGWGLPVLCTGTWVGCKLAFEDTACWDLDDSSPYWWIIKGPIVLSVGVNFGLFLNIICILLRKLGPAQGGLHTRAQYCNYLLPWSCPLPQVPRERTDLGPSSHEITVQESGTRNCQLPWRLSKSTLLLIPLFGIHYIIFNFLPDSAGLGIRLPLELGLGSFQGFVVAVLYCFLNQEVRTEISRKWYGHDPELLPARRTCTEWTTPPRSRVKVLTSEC
Experiment [7] has as its system Ki67 positive cells and c-kit+ cardiac precursor cells in rat heart. Nature of the experiment: Immunostaining for Ki67 and c-kit positive cells in heart sections. The experiment is classed as in vivo. The settings on record: remote zone, relative to placebo and GHRH-A. On the procedure:
as §1
Paraffin sections were deparaffinized and rehydrated by immersion in xylene and a graded series of ethanols. Antigen retrieval was performed by a heat-induced method with citrate buffer (Dako, Carpinteria, Calif.). After blocking with 10% normal donkey serum, sections were incubated with a primary antibody (table S3), at 37° C. for 1 hour, followed by application of secondary antibody. Omission of the primary antibodies on parallel sections was used as negative control. Nuclei were counterstained with DAPI (Invitrogen, Carlsbad, Calif.). The total numbers of positively-stained cells were quantified per slide to calculate the number of cells per unit volume (mm^3) on each sample. Morphometric analysis was performed by using Adobe Photoshop CS3 (San Jose, Calif.)

With “[Dat^1, Gln^8, Orn^12,21, Abu^15, Nle^27, Asp^28, Agm^29]hGH-RH(1-29)NH2 [GHRH-A]”, the “serum IGF-I” value with serum IGF-I is on record as “did not increase”. In addition, in the experiment with serum GH, the “serum GH” value is reported as “did not increase”. Also, the capillary density in experiment [1] is given as 0.006±0.001 /mm^2. Besides, in experiment [2] (4 weeks (W4) post-MI), the EF is 47±4% and 47.2 ± 4.0 ¶ %; the FS was 28.7±3.3%; the LVEDD was 7.7 ± 0.2 mm. In experiment [2] (baseline (BSL)), the EF came to 85.7 ± 1.6%, the FS is on record as 53.1 ± 1.0%, the LVEDD is 6.3 ± 0.2 mm and the LVESD worked out at 2.9 ± 0.1 mm. In experiment [3], the “expression of anti-apoptotic gene (Bcl2)” value is “upregulated” and the “expression of pro-apoptotic gene (Bax)” value was “trended to be downregulated”. In experiment [3] (in comparison to placebo or rrGH), the “ratio between Bax and Bcl2 expression” value is listed as “significantly reduced”. Moreover, in [4], the “Heart weight (HW)” value amounted to 695 ± 26 mg; the “body weight (BW) after MI” value came out at 225 ± 3 g; the “body weight (BW), baseline” value was determined as 231 ± 5 g. In experiment [5], this molecule yielded a Heart rate of 270 ± 17 bpm, an LVEDP of 8 ± 0.5 mmHg and an LVEDV of 421 ± 26 µL. For the same molecule, in experiment [5] (afterload), the “Ea (arterial elastance)” value is on record as 0.5 ± 0.004 mmHg/μl and the LVESP was found to be 83 ± 1.1 mmHg. Moreover, the “Ees (end-systolic elastance)” value in experiment [5] (contractility) is reported as 0.19 ± 0.02. Moreover, the “Ratio (GHRH-R gene expression level in treatment group compared to placebo group)” value with GHRH-R mRNA is on record as 1.91.
Consider “GHRH antagonist JV-1-42 (radioiodinated derivative) (peptide)”, for which, in experiment [6], the Bmax (fmol/mg protein) turned out to be 51.3 and the Kd – broadly, the constant that tells how readily two partners part at equilibrium – was 860 pM.

B1: rrGH: Rat recombinant GH supplied by National Hormone and Pituitary Program (NHPP) (protein, UniProt P01244 27-216, looked up)
Somatotropin: FPAMPLSSLFANAVLRAQHLHQLAADTYKEFERAYIPEGQRYSIQNAQAAFCFSETIPAPTGKEEAQQRTDMELLRFSLLLIQSWLGPVQFLSRIFTNSLMFGTSDRVYEKLKDLEEGIQALMQELEDGSPRIGQILKQTYDKFDANMRSDDALLKNYGLLSCFKKDLHKAETYLRVMKCRRFAESSCAF
As to B1, in experiment [7], the “expression of Ki67 positive cells” value is on record as “higher”. Also, the “serum IGF-I” value with serum IGF-I came out at 1052 ± 91 ng/mL. In the experiment with serum GH, the “serum GH” value was 679 ± 196 ng/mL. In addition, the “MI size (infarct size)” value in [1] (Masson's trichrome) came out at 45±2%. Besides, in experiment [1], the capillary density was 0.02±0.002 /mm^2 and the “percentage of ventricular fibrosis” value is 27±1%. In addition, in [2] (4 weeks (W4) post-MI), the EF is 44±2% and 44.3 ± 2.3%; the FS is 20.3±1.3%; the LVEDD was determined as 8.6 ± 0.1 mm; the LVESD is reported as 6.8 ± 0.2 mm. In [2] (baseline (BSL)), the EF was 89.2 ± 0.4%, the FS was determined as 58.2 ± 0.7%, the LVEDD was 5.9 ± 0.1 mm and the LVESD is listed as 2.3 ± 0.1 mm. In experiment [4], the “Heart weight (HW)” value worked out at 850 ± 38 mg; the “body weight (BW) after MI” value came out at 256 ± 3 g; the “body weight (BW), baseline” value was 217 ± 4 g. In experiment [5], this molecule yielded a Heart rate of 247 ± 6.8 bpm, an LVEDP of 10 ± 1.8 mmHg and an LVEDV of 351 ± 38 µL. In experiment [5] (afterload), this molecule registered an LVESP of 91 ± 2.3 mmHg. Besides, in experiment [5] (contractility), the “Ees (end-systolic elastance)” value amounted to 0.33 ± 0.12, the PRSW was found to be 48 ± 5.0 mmHg, the dP/dtmax is reported as 6243 ± 313 mmHg/s and the dP/dtmax_EDV was 17.5 ± 4.3 mmHg/s/l. This molecule gave a dP/dtmin in experiment [5] (lusitropy) of 4028 ± 334 mmHg/s. Besides, in experiment [5] (pressure-volume derived), the “CO (cardiac output)” value worked out at 22.5 ± 3.4 mL/min, the EF was found to be 26.2 ± 1.7%, the “SV (stroke volume)” value was found to be 98 ± 13 µL and the “SW (stroke work)” value is recorded as 6920 ± 790. Also, in experiment [5] (ratio between arterial elastance and end-systolic elastance), the Ea/Ees was determined as 4.4 ± 0.6. Also, the “TAU (G)” value in [5] (relaxation time constant, Glantz method) is given as 19.9 ± 0.4 ms. In the experiment on GHRH-R mRNA, the “Ratio (GHRH-R gene expression level in treatment group compared to placebo group)” value is reported as 2.10 *.
